The target of one series is T1, PykA (Bacillus subtilis, UniProt P80885).
T1 construct: gene pyk; full length, 585 residues (1755 bp); N-terminal His-MBP tag removed by TEV; E. coli Rosetta(DE3); homotetramer
T1 sequence (P80885 2-585): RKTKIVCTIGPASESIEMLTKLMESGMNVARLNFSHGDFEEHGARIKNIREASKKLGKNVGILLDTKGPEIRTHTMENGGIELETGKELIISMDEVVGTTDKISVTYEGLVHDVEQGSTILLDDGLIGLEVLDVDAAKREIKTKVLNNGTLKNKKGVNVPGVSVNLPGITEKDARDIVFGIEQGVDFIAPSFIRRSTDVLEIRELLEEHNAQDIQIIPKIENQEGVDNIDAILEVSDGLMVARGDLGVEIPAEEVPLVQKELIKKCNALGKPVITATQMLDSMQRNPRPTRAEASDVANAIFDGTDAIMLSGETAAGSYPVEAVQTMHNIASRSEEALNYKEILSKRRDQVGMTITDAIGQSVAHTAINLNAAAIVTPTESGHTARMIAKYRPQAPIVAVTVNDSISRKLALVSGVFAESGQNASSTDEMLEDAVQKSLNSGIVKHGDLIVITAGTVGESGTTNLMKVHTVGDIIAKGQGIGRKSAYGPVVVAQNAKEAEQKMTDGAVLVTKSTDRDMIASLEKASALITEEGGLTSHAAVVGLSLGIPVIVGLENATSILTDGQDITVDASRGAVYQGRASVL
The series is described as follows: LDH-coupled NADH oxidation at […] nm, Michaelis-Menten fit. It counts as biochemical. The conditions noted are these: 2 mM ADP, 10 mM MgCl2, 50 mM KCl, 10 mM Tris-HCl pH 7.5, 25 °C; no effector added.

Substrate in the series “purified protein”: C=C(OP(=O)(O)O)C(=O)O
The series is described as follows: purified protein. It counts as biochemical, Bacillus subtilis. The note with it: 2 mM ADP, 10 mM MgCl2, 50 mM KCl, 10 mM Tris-HCl pH 7.5, 25 °C, no effector added, Hill coefficient n = 0.8111.

A further series addresses T2, PykA (pyruvate kinase) (Bacillus subtilis, UniProt P80885 1-585).
T2 sequence: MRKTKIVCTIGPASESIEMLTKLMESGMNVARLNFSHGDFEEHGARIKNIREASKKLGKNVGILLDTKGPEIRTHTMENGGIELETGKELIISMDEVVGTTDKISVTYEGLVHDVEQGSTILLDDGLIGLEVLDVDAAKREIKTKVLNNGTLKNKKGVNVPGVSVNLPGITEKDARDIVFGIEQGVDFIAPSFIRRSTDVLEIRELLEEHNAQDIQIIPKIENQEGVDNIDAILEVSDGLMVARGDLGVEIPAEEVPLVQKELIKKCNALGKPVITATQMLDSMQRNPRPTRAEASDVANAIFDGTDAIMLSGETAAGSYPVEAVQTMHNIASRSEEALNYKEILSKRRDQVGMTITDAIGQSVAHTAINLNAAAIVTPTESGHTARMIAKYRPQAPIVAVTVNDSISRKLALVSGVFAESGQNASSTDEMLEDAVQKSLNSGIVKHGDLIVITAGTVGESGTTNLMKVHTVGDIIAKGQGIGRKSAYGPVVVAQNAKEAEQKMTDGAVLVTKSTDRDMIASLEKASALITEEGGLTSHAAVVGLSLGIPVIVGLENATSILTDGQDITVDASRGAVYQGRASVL
The series is described as follows: EMSA; 1,250 nM PykA tetramer, 1 nM DNA, 10 mM Mg2+, no DnaE; EMSA: 50 mM Tris-HCl pH 7.5, 50 mM NaCl, 10 mM MgCl2, 10 min at 37 °C, 1 nM DNA. The note with it: protein: recombinant; tags: none (N-terminal His-MBP removed by TEV); chain copies: 4; label: 5'-32P on the 15mer; 15mer pairs with the 3' half of the 30mer; template 5' overhang 15 nt. A general note: Mobility shift assays separate free from complexed probe on a gel.

Series [1] deals with the molecule itself. The series is described as follows: native MS; purified PykA, 4 uM, in 200 mM ammonium acetate pH 6.8; nano-electrospray on a modified Q-Tof; self-association (tetramer).

What is called Km is the concentration of substrate that gives half-maximal velocity. Broadly, the stoichiometry N is a count of units in the complex or per binding partner.

In the case of `C=C(OP(=O)(O)O)C(=O)O` [PEP], the Michaelis constant (Km) at PykA came to 1700 µM.

B1: PykA (Bacillus subtilis subsp. subtilis str. 168) (protein)
chain: T1 sequence (P80885 2-585)
notes: full length, 585 residues (1755 bp); N-terminal His-MBP tag removed by TEV; E. coli Rosetta(DE3); homotetramer
On to B1, for which the K0.5 in the series “purified protein” amounted to 2.7 mM.

B2: 15mer primer annealed to 30mer template (dsDNA)
DNA 1: AAGGGGGTGTGTGTG
DNA 2: ACACACACACACACACACACACACCCCCTT
Regarding B2, the binding result with PykA (pyruvate kinase) was “no binding”.

B3: Bacillus subtilis pyruvate kinase PykA (enzyme, UniProt P80885 1-585, looked up)
chain: T2 sequence
notes: Pyruvate kinase PykA of Bacillus subtilis; 1755 bp fragment carrying the pykA gene amplified from genomic DNA and cloned in p2CT; theoretical monomer mass 62,314.9 Da; The forward primer PyKAF starts at the codon for Arg2 (AGA AAA ACT ...), so the first methionine is probably absent; A few vector residues probably remain after TEV cleavage; also called full length PykA; BsuPykA; source: E. coli …
As to B3, the “stoichiometry N” value in series [1] is 4.

The values are drawn from paper PMC9009071, “Pyruvate kinase, a metabolic sensor powering glycolysis, drives the metabolic control of DNA replication” (BMC Biology, 2022).
